This is an account of results in publication PMC8015787.

Substrate in the series: O=CCO
Description: O2 consumption. Type of series: biochemical, Escherichia coli. The note with it: thiamin diphosphate (ThDP), Mg2+ active site; donor (and acceptor) substrate.

B1: 1-deoxy-D-xylulose 5-phosphate synthase (DXPS) (Escherichia coli K-12) (protein)
chain: SFDIAKYPTLALVDSTQELRLLPKESLPKLCDELRRYLLDSVSRSSGHFASGLGTVELTVALHYVYNTPFDQLIWDVGHQAYPHKILTGRRDKIGTIRQKGGLHPFPWRGESEYDVLSVGHSSTSISAGIGIAVAAEKEGKNRRTVCVIGDGAITAGMAFEAMNHAGDIRPDMLVILNDNEMSISENVGALNNHLAQLLSGKLYSSLREGGKKVFSGVPPIKELLKRTEEHIKGMVVPGTLFEELGFNYIGPVDGHDVLGLITTLKNMRDLKGPQFLHIMTKKGRGYEPAEKDPITFHAVPKFDPSSGCLPKSSGGLPSYSKIFGDWLCETAAKDNKLMAITPAMREGSGMVEFSRKFPDRYFDVAIAEQHAVTFAAGLAIGGYKPIVAIYSTFLQRAYDQVLHDVAIQKLPVLFAIDRAGIVGADGQTHQGAFDLSYLRCIPEMVIMTPSDENECRQMLYTGYHYNDGPSAVRYPRGNAVGVELTPLEKLPIGKGIVKRRGEKLAILNFGTLMPEAAKVAESLNATLVDMRFVKPLDEALILEMAASHEALVTVEENAIMGGAGSGVNEVLMAHRKPVPVLNIGLPDFFIPQGTQEEMRAELGLDAAGMEAKIKAWLA
For orientation: Km means the concentration of substrate that gives half-maximal velocity. Regarding B1, the Km was 920 ± 120 µM.
